# Test results taken from patent US20210230664.
# Test system: dCas9 (SpCas9 D10A/H840A) D10A,H840A (Streptococcus pyogenes)
# Conditions: nanochannel imaging; NEB Buffer 3, BSA, 37 C 60 min; about 16% of labels off-target; PAM not stated
substance,measurement,value
DUF1220 crRNA (with tracrRNA-ATTO647) ; linearized BAC DNA with DUF1220 repeats,activity (% target sites labeled),86
